The values that follow come from publication PMC7972864, “Fucoxanthin Prevents 6-OHDA-Induced Neurotoxicity by Targeting Keap1” (Oxidative Medicine and Cellular Longevity, 2021).

In the assay the target is human Keap1 protein (human), Q14145. In words: BLI. To be noted: natural protein; chains chain; biotinylated (site not stated); remark: other sources report otherwise.
human Keap1 protein (human), Q14145, sequence (Q14145 whole entry): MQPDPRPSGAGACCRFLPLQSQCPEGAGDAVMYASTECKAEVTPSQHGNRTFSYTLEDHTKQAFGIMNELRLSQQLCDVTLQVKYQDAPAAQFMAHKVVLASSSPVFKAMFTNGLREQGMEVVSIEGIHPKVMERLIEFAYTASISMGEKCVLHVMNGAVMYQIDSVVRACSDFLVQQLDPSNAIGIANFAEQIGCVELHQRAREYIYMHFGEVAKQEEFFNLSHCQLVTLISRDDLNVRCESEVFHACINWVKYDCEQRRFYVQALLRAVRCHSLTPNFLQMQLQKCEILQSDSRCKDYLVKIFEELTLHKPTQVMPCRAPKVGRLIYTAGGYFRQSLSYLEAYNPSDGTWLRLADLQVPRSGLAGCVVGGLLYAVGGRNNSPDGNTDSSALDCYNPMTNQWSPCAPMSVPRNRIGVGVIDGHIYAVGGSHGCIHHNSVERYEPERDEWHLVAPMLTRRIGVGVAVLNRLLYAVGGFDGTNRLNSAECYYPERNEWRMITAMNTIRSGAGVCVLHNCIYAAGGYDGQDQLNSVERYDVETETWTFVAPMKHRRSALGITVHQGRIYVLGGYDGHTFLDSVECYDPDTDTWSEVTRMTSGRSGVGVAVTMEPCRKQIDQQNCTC

B1: human Nrf2 protein, Q16236 1-605 (protein)
chain: MMDLELPPPGLPSQQDMDLIDILWRQDIDLGVSREVFDFSQRRKEYELEKQKKLEKERQEQLQKEQEKAFFAQLQLDEETGEFLPIQPAQHIQSETSGSANYSQVAHIPKSDALYFDDCMQLLAQTFPFVDDNEVSSATFQSLVPDIPGHIESPVFIATNQAQSPETSVAQVAPVDLDGMQQDIEQVWEELLSIPELQCLNIENDKLVETTMVPSPEAKLTEVDNYHFYSSIPSMEKEVGNCSPHFLNAFEDSFSSILSTEDPNQLTVNSLNSDATVNTDFGDEFYSAFIAEPSISNSMPSPATLSHSLSELLNGPIDVSDLSLCKAFNQNHPESTAEFNDSDSGISLNTSPSVASPEHSVESSSYGDTLLGLSDSEVEELDSAPGSVKQNGPKTPVHSSGDMVQPLSPSQGQSTHVHDAQCENTPEKELPVSPGHRKTPFTKDKHSSRLEAHLTRDELRAKALHIPFPVEKIINLPVVDFNEMMSKEQFNEAQLALIRDIRRRGKNKVAAQNCRKRKLENIVELEQDLDHLKDEKEKLLKEKGENDKSLHLLKKQLSTLYLEVFSMLRDEDGKPYSPSEYSLQQTRDGNVFLVPKSKKPDVKKN
Consider B1, for which the Kd (in general, the free concentration of one partner at which half of the binding sites on the other are occupied at equilibrium, for simple one-to-one binding) amounted to 12.6 nM.
